B1: ATGL (PNPLA2, patatin-like phospholipase domain-containing protein 2), human, full length / G0S2 (G0/G1 switch protein 2), human (parent)
chain 1: MFPREKTWNISFAGCGFLGVYYVGVASCLREHAPFLVANATHIYGASAGALTATALVTGVCLGEAGAKFIEVSKEARKRFLGPLHPSFNLVKIIRSFLLKVLPADSHEHASGRLGISLTRVSDGENVIISHFNSKDELIQANVCSGFIPVYCGLIPPSLQGVRYVDGGISDNLPLYELKNTITVSPFSGESDICPQDSSTNIHELRVTNTSIQFNLRNLYRLSKALFPPEPLVLREMCKQGYRDGLRFLQRNGLLNRPNPLLALPPARPHGPEDKDQAVESAQAEDYSQLPGEDHILEHLPARLNEALLEACVEPTDLLTTLSNMLPVRLATAMMVPYTLPLESALSFTIRLLEWLPDVPEDIRWMKEQTGSICQYLVMRAKRKLGRHLPSRLPEQVELRRVQSLPSVPLSCAAYREALPGWMRNNLSLGDALAKWEECQRQLLLGLFCTNVAFPPEALRMRAPADPAPAPADPASPQHQLAGPAPLLSTPAPEARPVIGALGL
chain 2: METVQELIPLAKEMMAQKRKGKMVKLYVLGSVLALFGVVLGLMETVCSPFTAARRLRDQEAAVAELQAALERQALQKQALQEKGKQQDTVLGGRALSNRQHAS

Variants of B1 are the subject of the experiment. The experiment is described as follows: LUMIER: Protein A-ATGL variant and firefly luciferase-partner co-expressed in HEK293T, lysates immunoprecipitated on IgG-coated plates, co-precipitated partner measured as luciferase luminescence. The following applies: with G0S2 (G0/G1 switch protein 2), transient co-transfection, IgG-coated LUMITRAC plates, 2 h at 4 °C, three PBS washes, Bright-Glo luciferase reagent, triplicates per assay, two …, scale: log2 fold change of co-immunoprecipitated luminescence relative to wild-type ATGL within each experiment.

The text below walks through data of publication PMC10958042.

Turning to chain 1 S158E, the screen value is, setting by setting: (parent: 0.26, not graded) -0.0501; (parent: 0.56, not graded) 0.0613.

Consider chain 1 S158A, for which the screen value was -0.121 (parent: 0.26, not graded) and 0.343 (parent: 0.56, not graded).

On to chain 1 V127L, for which the screen value came to 0.199 (parent: 0.26, not graded) and 0.376 (parent: 0.56, not graded).

Turning to chain 1 R329E, the screen value by setting is: (parent: 0.26, not graded) -0.556; (parent: 0.56, not graded) -0.22.

chain 1 Y415A: the screen value was -0.00445 (parent: 0.26, not graded) and -0.27 (parent: 0.56, not graded).

Take chain 1 R351L: the screen value runs as follows: (parent: 0.26, not graded) 0.121; (parent: 0.56, not graded) 0.273.

For the variant chain 1 R95L, the screen value reads like this: (parent: 0.26, not graded) -0.0587; (parent: 0.56, not graded) -0.569.

For chain 1 R95K, the screen value (parent: 0.26, not graded) stood at 0.105 and the screen value (parent: 0.56, not graded) worked out at 0.0501.

In the case of chain 1 S87E, the screen value was -0.559 (parent: 0.26, not graded) and -1.39 (parent: 0.56, not graded).

chain 1 S87A: the screen value is -0.675 (parent: 0.26, not graded) and -0.33 (parent: 0.56, not graded).

Turning to chain 1 V328A, the screen value reads like this: (parent: 0.26, not graded) -2.09; (parent: 0.56, not graded) -2.9.

Consider chain 1 R163K, for which the screen value is, setting by setting: (parent: 0.26, not graded) 0.411; (parent: 0.56, not graded) 0.335.

For the variant chain 1 S106K, the screen value (parent: 0.26, not graded) is -0.922 and the screen value (parent: 0.56, not graded) is -1.29.

chain 1 T41A: the screen value was 0.0368 (parent: 0.26, not graded) and 0.0587 (parent: 0.56, not graded).

For chain 1 R113L, the screen value reads like this: (parent: 0.26, not graded) -0.0286; (parent: 0.56, not graded) -0.429.

With chain 1 R113K, the screen value (parent: 0.26, not graded) worked out at 0.927 and the screen value (parent: 0.56, not graded) was -0.0371.

In the case of chain 1 Q396A, the screen value by setting is: (parent: 0.26, not graded) -1.32; (parent: 0.56, not graded) -1.71.
